Test results published in the Human Domainome abundance scans (Beltran et al. 2025).
± gives the uncertainty stated by the source.

assay: abundance fitness (aPCA) (normalised: wild type 0, dead -1); higher = more abundant; growth selection in yeast, the domain comes from the species named; conditions: Saccharomyces cerevisiae (strain ATCC 204508 / S288c)

Substance | abundance fitness
E3 ubiquitin-protein ligase RSP5 R340F, P39940 | -0.155 ± 0.16
E3 ubiquitin-protein ligase RSP5 R340H, P39940 | -0.206 ± 0.22
E3 ubiquitin-protein ligase RSP5 R340I, P39940 | 0.002 ± 0.087
E3 ubiquitin-protein ligase RSP5 R340K, P39940 | 0.133 ± 0.081
E3 ubiquitin-protein ligase RSP5 R340L, P39940 | 0.078 ± 0.055
E3 ubiquitin-protein ligase RSP5 R340M, P39940 | 0.052 ± 0.055
E3 ubiquitin-protein ligase RSP5 R340N, P39940 | -0.089 ± 0.08
E3 ubiquitin-protein ligase RSP5 R340P, P39940 | -1 ± 0.063
E3 ubiquitin-protein ligase RSP5 R340Q, P39940 | 0.001 ± 0.054
E3 ubiquitin-protein ligase RSP5 R340S, P39940 | -0.039 ± 0.057
E3 ubiquitin-protein ligase RSP5 R340T, P39940 | -0.108 ± 0.062
E3 ubiquitin-protein ligase RSP5 R340V, P39940 | 0.022 ± 0.049
E3 ubiquitin-protein ligase RSP5 R340W, P39940 | -0.088 ± 0.054
E3 ubiquitin-protein ligase RSP5 R346A, P39940 | 0.121 ± 0.05
E3 ubiquitin-protein ligase RSP5 R346C, P39940 | 0.095 ± 0.069
E3 ubiquitin-protein ligase RSP5 R346D, P39940 | 0.307 ± 0.057
E3 ubiquitin-protein ligase RSP5 R346E, P39940 | 0.414 ± 0.06
E3 ubiquitin-protein ligase RSP5 R346F, P39940 | -0.042 ± 0.069
E3 ubiquitin-protein ligase RSP5 R346G, P39940 | 0.016 ± 0.044
E3 ubiquitin-protein ligase RSP5 R346H, P39940 | 0.289 ± 0.096
E3 ubiquitin-protein ligase RSP5 R346K, P39940 | 0.192 ± 0.064
E3 ubiquitin-protein ligase RSP5 R346L, P39940 | 0.078 ± 0.05
E3 ubiquitin-protein ligase RSP5 R346M, P39940 | 0.222 ± 0.067
E3 ubiquitin-protein ligase RSP5 R346N, P39940 | 0.185 ± 0.085
E3 ubiquitin-protein ligase RSP5 R346P, P39940 | -0.165 ± 0.049
E3 ubiquitin-protein ligase RSP5 R346Q, P39940 | 0.165 ± 0.066

Substance | abundance fitness
E3 ubiquitin-protein ligase RSP5 R346S, P39940 | 0.15 ± 0.05
E3 ubiquitin-protein ligase RSP5 R346T, P39940 | 0.094 ± 0.053
E3 ubiquitin-protein ligase RSP5 R346V, P39940 | 0.056 ± 0.049
E3 ubiquitin-protein ligase RSP5 R346W, P39940 | -0.017 ± 0.073
E3 ubiquitin-protein ligase RSP5 R346Y, P39940 | 0.068 ± 0.079
E3 ubiquitin-protein ligase RSP5 R355C, P39940 | -0.17 ± 0.052
E3 ubiquitin-protein ligase RSP5 R355D, P39940 | -0.462 ± 0.088
E3 ubiquitin-protein ligase RSP5 R355E, P39940 | -0.159 ± 0.053
E3 ubiquitin-protein ligase RSP5 R355F, P39940 | -0.057 ± 0.2
E3 ubiquitin-protein ligase RSP5 R355G, P39940 | -0.186 ± 0.041
E3 ubiquitin-protein ligase RSP5 R355H, P39940 | -0.101 ± 0.063
E3 ubiquitin-protein ligase RSP5 R355I, P39940 | -0.35 ± 0.086
E3 ubiquitin-protein ligase RSP5 R355K, P39940 | 0.033 ± 0.066
E3 ubiquitin-protein ligase RSP5 R355L, P39940 | -0.192 ± 0.049
E3 ubiquitin-protein ligase RSP5 R355M, P39940 | -0.065 ± 0.07
E3 ubiquitin-protein ligase RSP5 R355N, P39940 | -0.008 ± 0.069
E3 ubiquitin-protein ligase RSP5 R355P, P39940 | -0.64 ± 0.064
E3 ubiquitin-protein ligase RSP5 R355Q, P39940 | -0.013 ± 0.069
E3 ubiquitin-protein ligase RSP5 R355T, P39940 | -0.257 ± 0.068
E3 ubiquitin-protein ligase RSP5 R355V, P39940 | -0.425 ± 0.045
E3 ubiquitin-protein ligase RSP5 R363C, P39940 | -0.219 ± 0.068
E3 ubiquitin-protein ligase RSP5 R363D, P39940 | -0.725 ± 0.067
E3 ubiquitin-protein ligase RSP5 R363E, P39940 | -0.443 ± 0.057
E3 ubiquitin-protein ligase RSP5 R363F, P39940 | -0.805 ± 0.11
E3 ubiquitin-protein ligase RSP5 R363G, P39940 | -0.276 ± 0.041
E3 ubiquitin-protein ligase RSP5 R363H, P39940 | -0.398 ± 0.066

Substance | abundance fitness
E3 ubiquitin-protein ligase RSP5 R363I, P39940 | -0.473 ± 0.061
E3 ubiquitin-protein ligase RSP5 R363K, P39940 | -0.41 ± 0.057
E3 ubiquitin-protein ligase RSP5 R363L, P39940 | -0.377 ± 0.047
E3 ubiquitin-protein ligase RSP5 R363M, P39940 | -0.233 ± 0.061
E3 ubiquitin-protein ligase RSP5 R363N, P39940 | -0.357 ± 0.069
E3 ubiquitin-protein ligase RSP5 R363Q, P39940 | -0.367 ± 0.06
E3 ubiquitin-protein ligase RSP5 R363S, P39940 | -0.262 ± 0.049
E3 ubiquitin-protein ligase RSP5 R363T, P39940 | -0.256 ± 0.056
E3 ubiquitin-protein ligase RSP5 R363V, P39940 | -0.437 ± 0.046
E3 ubiquitin-protein ligase RSP5 R363W, P39940 | -0.511 ± 0.06
E3 ubiquitin-protein ligase RSP5 R363Y, P39940 | -0.667 ± 0.08
E3 ubiquitin-protein ligase RSP5 R364A, P39940 | 0.113 ± 0.055
E3 ubiquitin-protein ligase RSP5 R364D, P39940 | 0.126 ± 0.067
E3 ubiquitin-protein ligase RSP5 R364E, P39940 | 0.129 ± 0.052
E3 ubiquitin-protein ligase RSP5 R364H, P39940 | 0.163 ± 0.092
E3 ubiquitin-protein ligase RSP5 R364I, P39940 | -0.088 ± 0.11
E3 ubiquitin-protein ligase RSP5 R364L, P39940 | 0.074 ± 0.043
E3 ubiquitin-protein ligase RSP5 R364M, P39940 | 0.051 ± 0.059
E3 ubiquitin-protein ligase RSP5 R364P, P39940 | 0.072 ± 0.052
E3 ubiquitin-protein ligase RSP5 R364Q, P39940 | 0.066 ± 0.054
E3 ubiquitin-protein ligase RSP5 R364S, P39940 | 0.087 ± 0.05
E3 ubiquitin-protein ligase RSP5 R364T, P39940 | 0.077 ± 0.057
E3 ubiquitin-protein ligase RSP5 R364V, P39940 | 0.035 ± 0.049
E3 ubiquitin-protein ligase RSP5 R364W, P39940 | -0.072 ± 0.048
E3 ubiquitin-protein ligase RSP5 R364Y, P39940 | -0.026 ± 0.086
E3 ubiquitin-protein ligase RSP5 S328A, P39940 | -0.172 ± 0.046

Substance | abundance fitness
E3 ubiquitin-protein ligase RSP5 S328C, P39940 | 0.054 ± 0.079
E3 ubiquitin-protein ligase RSP5 S328D, P39940 | 0.126 ± 0.074
E3 ubiquitin-protein ligase RSP5 S328G, P39940 | -0.113 ± 0.042
E3 ubiquitin-protein ligase RSP5 S328H, P39940 | -0.014 ± 0.076
E3 ubiquitin-protein ligase RSP5 S328K, P39940 | 0.083 ± 0.055
E3 ubiquitin-protein ligase RSP5 S328M, P39940 | 0.099 ± 0.067
E3 ubiquitin-protein ligase RSP5 S328N, P39940 | 0.1 ± 0.071
E3 ubiquitin-protein ligase RSP5 S328P, P39940 | -0.025 ± 0.064
E3 ubiquitin-protein ligase RSP5 S328R, P39940 | -0.095 ± 0.044
E3 ubiquitin-protein ligase RSP5 S328T, P39940 | -0.018 ± 0.12
E3 ubiquitin-protein ligase RSP5 S328V, P39940 | -0.07 ± 0.055
E3 ubiquitin-protein ligase RSP5 S328Y, P39940 | 0.036 ± 0.098
E3 ubiquitin-protein ligase RSP5 S335A, P39940 | -0.063 ± 0.044
E3 ubiquitin-protein ligase RSP5 S335C, P39940 | -0.147 ± 0.07
E3 ubiquitin-protein ligase RSP5 S335D, P39940 | 0.205 ± 0.14
E3 ubiquitin-protein ligase RSP5 S335E, P39940 | -0.031 ± 0.053
E3 ubiquitin-protein ligase RSP5 S335F, P39940 | -0.205 ± 0.11
E3 ubiquitin-protein ligase RSP5 S335G, P39940 | -0.108 ± 0.052
E3 ubiquitin-protein ligase RSP5 S335H, P39940 | -0.079 ± 0.066
E3 ubiquitin-protein ligase RSP5 S335K, P39940 | -0.049 ± 0.045
E3 ubiquitin-protein ligase RSP5 S335L, P39940 | -0.202 ± 0.046
E3 ubiquitin-protein ligase RSP5 S335M, P39940 | -0.086 ± 0.063
E3 ubiquitin-protein ligase RSP5 S335N, P39940 | -0.015 ± 0.084
E3 ubiquitin-protein ligase RSP5 S335P, P39940 | 0.047 ± 0.38
E3 ubiquitin-protein ligase RSP5 S335Q, P39940 | -0.094 ± 0.051
